# Measurements: US20230250167A1 (published 2023)
# Where “and” joins values, the source holds several entries; their conditions need not be identical. Equal values may be shown once.
# Legend:
# [1] = target: human ILT7 expressed on transfected cells (human, UniProt P59901 24-499); test: cell-based or functional assay
# [2] = target: T1, cynomolgus ILT7 expressed on transfected cells (cynomolgus, UniProt P59901 24-499 (human entry)); test: cell-based or functional assay
# [3] = target: T1, cynomolgus ILT7 expressed on …; test: flow cytometry on CT-125 cells expressing cynomolgus ILT7
# Method: Binding of anti-ILT7 variants and isotype controls on human and cynomolgus ILT7 was assessed by flow cytometry analysis using CT-550 and cynoILT7 CT-125 cells respectively. CT-125 cells were used as control. Cells were resuspended in Blocking Buffer (PBS supplemented with 10% FBS) at a concentration of 5 million cells per mL and transferred into a round-bottom 96-well plates (BD Falcon™ Clear Microtest Plate, BD Biosciences) at 100 μL per well. Anti-ILT7 variants and control antibodies were added onto the cells for 30 min at 4° C. on a plate shaker. Cells were washed three times with PBS and resuspended in Blocking Buffer (100 μL/well). Human IgG binding on cell surface was detected using a secondary anti-human IgG antibody conjugated to DyLight 649 (1 in 1000 dilution). Cells were incubated in the dark for 30 min at 4° C. on a plate shaker. Cells were washed three times with PBS and surface fluorescence was acquired using LSRII Flow Cytometry System and FACSDiva Software (both from BD Biosciences).
# The resultant IgG1s were tested to confirm that the sequence changes incorporated into ILT70080 and ILT70083 and had not adversely impacted the binding of the parent antibody to cells expressing human ILT7 (CT-550 cells) or cynomolgus ILT7 (CT-125 cells). The variants were screened for binding by flow cytometry. […] However, five ILT70083 variants (ILT70083.4, ILT70083.9, ILT70083.3, ILT70083.6, and ILT70083.8) had improved binding capacity compared to the parental antibody for cynomolgus ILT7.
# T1 sequence (P59901 other isoform, or with tags, fused parts or gaps limits assumed): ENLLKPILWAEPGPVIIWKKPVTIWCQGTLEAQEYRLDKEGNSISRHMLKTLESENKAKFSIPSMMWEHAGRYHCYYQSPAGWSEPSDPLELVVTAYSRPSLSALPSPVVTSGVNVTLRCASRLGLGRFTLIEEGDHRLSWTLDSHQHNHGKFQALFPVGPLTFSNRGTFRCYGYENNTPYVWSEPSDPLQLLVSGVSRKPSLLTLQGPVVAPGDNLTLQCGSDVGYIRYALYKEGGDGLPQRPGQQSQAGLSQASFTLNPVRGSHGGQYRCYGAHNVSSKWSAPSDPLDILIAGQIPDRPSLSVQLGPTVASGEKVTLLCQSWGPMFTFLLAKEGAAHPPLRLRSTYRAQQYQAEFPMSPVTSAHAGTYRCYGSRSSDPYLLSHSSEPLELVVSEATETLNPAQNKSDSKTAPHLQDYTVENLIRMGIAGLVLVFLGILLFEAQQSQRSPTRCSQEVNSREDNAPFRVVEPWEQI
# Chain of human ILT7 expressed on transfected cells (P59901 24-499): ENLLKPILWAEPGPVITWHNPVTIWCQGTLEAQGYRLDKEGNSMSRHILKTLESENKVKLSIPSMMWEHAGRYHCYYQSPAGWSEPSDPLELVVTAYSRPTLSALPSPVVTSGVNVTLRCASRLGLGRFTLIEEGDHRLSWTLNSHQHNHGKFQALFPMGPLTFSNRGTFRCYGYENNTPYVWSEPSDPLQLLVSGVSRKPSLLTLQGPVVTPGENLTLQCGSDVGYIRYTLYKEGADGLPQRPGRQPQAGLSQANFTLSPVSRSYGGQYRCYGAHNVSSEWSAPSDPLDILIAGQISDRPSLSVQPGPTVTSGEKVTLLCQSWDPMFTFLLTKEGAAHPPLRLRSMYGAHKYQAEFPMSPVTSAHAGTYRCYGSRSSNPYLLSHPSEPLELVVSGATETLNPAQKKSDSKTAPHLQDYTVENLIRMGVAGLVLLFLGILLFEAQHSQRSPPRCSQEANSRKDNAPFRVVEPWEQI
binder,measurement,setting,value
"afucosylated IgG1 ILT70137 (antibody, V domains shown, afucosylated (made as in Example 7: lacks the α-1,6 fucose moiety on the N-glycan at Asn-297 of the heavy chain)) VH: QVQLQQSGAEVKKPGASVKVSCKASGYTFTSYGISWVRQAPGQGLEWMGWISAYNGNTNYAQKLQGRVTMTTDTSTSTAYMELRSLRSDDTAVYYCARNGLWGWDSDAFDIWGRGTLVTVSS VL: QSALTQPASVSGSPGQSITISCTGTSSDVGGYNYVSWYQQHPGKAPKLMIYDVSNRPSGVSNRFSGSKSGNTASLTISGLQAEDEADYYCSSYTSSSTVVFGGGTKVTVL",ADCC EC50,[1],4.19 µM
same,ADCC EC50,[2],1.89 µM
"ILT70083.1 (antibody, V domains shown) VH: EVQLLESGGGLVQPGGSLRLSCAASGFTFSSYAMSWVRQAPGKGLEWVSAISGSGGSTYYADSVKGWFTISRDNSKNTLYLQMNSLRAEDTAVYYCARRTYYYDSDGHSDVFDIWGRGTLVTVSS VL: QSVVTQPPSVSAAPGQKVTISCSGSASNIGSNFVSWYQQLPGTAPKLLIYDNDKRDLGIPDRFSASISSTSATLGITGLQTGDEADYYCGTWDTSLTVGVFGGGTKLTVL",ADCC potency EC50,[1],> 89 µM
"ILT70083.3 (antibody, V domains shown, Engineered (germlined) ILT70083 IgG1 variant; also called ILT70083 variant) VH: EVQLLESGGGLVQPGGSLRLSCAASGFTFSSYAMSWVRQAPGKGLEWVSAISGSGGSTYYADSVKGWFTISRDNSKNTLYLQMNSLRAEDTAVYYCARRTYYYDSDGHSDVFDIWGRGTLVTVSS VL: QSVVTQPPSVSAAPGQKVTISCSGSASNIGSNFVSWYQQLPGTAPKLLIYDNDKRDLGIPDRFSGSKSGTSATLGITGLQTGDEADYYCGTWDTSLTVGVFGGGTKLTVL",ADCC potency EC50,[1],> 89 µM
same,binding result,[3],binds
"ILT70083.7 (antibody, V domains shown) VH: not shown VL: QSVLTQPPSVSAAPGQKVTISCSGSASNIGSNFVSWYQQLPGTAPKLLIYDNDKRDLGIPDRFSASISSTSATLGITGLQTGDEADYYCGTWDTSLTVGVFGGGTKLTVL",ADCC potency EC50,[1],> 89 µM
"ILT70083.6 (antibody, V domains shown, Engineered (germlined) ILT70083 IgG1 variant; also called ILT70083 variant) VH: not shown VL: QSVVTQPPSVSAAPGQKVTISCSGSASNIGSNFVSWYQQLPGTAPKLLIYDNDKRDLGIPDRFSASISSTSATLGITGLQTGDEADYYCGTWDTSLTVGVFGGGTKLTVL",ADCC potency EC50,[1],> 89 µM
same,binding result,[3],binds
"ILT70083.2 (antibody, V domains shown) VH: EVQLLESGGGLVQPGGSLRLSCAASGFTFSSYAMSWVRQAPGKGLEWVSAISGSGGSTYYADSVKGWFTISRDNSKNTLYLQMNSLRAEDTAVYYCARRTYYYDSDGHSDVFDIWGRGTLVTVSS VL: QSVLTQPPSVSAAPGQKVTISCSGSASNIGSNFVSWYQQLPGTAPKLLIYDNDKRDLGIPDRFSASISSTSATLGITGLQTGDEADYYCGTWDTSLTVGVFGGGTKLTVL",ADCC potency EC50,[1],> 89 µM
"ILT70083.4 (antibody, V domains shown, Engineered (germlined) ILT70083 IgG1 variant; also called ILT70083 variant) VH: EVQLLESGGGLVQPGGSLRLSCAASGFTFSSYAMSWVRQAPGKGLEWVSAISGSGGSTYYADSVKGWFTISRDNSKNTLYLQMNSLRAEDTAVYYCARRTYYYDSDGHSDVFDIWGRGTLVTVSS VL: QSVLTQPPSVSAAPGQKVTISCSGSASNIGSNFVSWYQQLPGTAPKLLIYDNDKRDLGIPDRFSGSKSGTSATLGITGLQTGDEADYYCGTWDTSLTVGVFGGGTKLTVL",ADCC potency EC50,[1],> 89 µM
same,binding result,[3],binds
"ILT70083.9 (antibody, V domains shown, Engineered (germlined) ILT70083 IgG1 variant; also called ILT70083 variant) VH: not shown VL: QSVLTQPPSVSAAPGQKVTISCSGSASNIGSNFVSWYQQLPGTAPKLLIYDNDKRDLGIPDRFSGSKSGTSATLGITGLQTGDEADYYCGTWDTSLTVGVFGGGTKLTVL",ADCC potency EC50,[1],> 89 µM
same,binding result,[3],binds
"ILT70083.5 (antibody, V domains shown) VH: not shown VL: QSVVTQPPSVSAAPGQKVTISCSGSASNIGSNFVSWYQQLPGRAPKLLIYDNDKRDLGIPDRFSASISSTSAALAITGLQTEDEADYYCGTWDTSLTVGVFGGGTKLTVL",ADCC potency EC50,[1],> 89 µM
"ILT70083.8 (antibody, V domains shown, Engineered (germlined) ILT70083 IgG1 variant; also called ILT70083 variant) VH: not shown VL: QSVVTQPPSVSAAPGQKVTISCSGSASNIGSNFVSWYQQLPGTAPKLLIYDNDKRDLGIPDRFSGSKSGTSATLGITGLQTGDEADYYCGTWDTSLTVGVFGGGTKLTVL",ADCC potency EC50,[1],> 89 µM
same,binding result,[3],binds
"ILT70080.2 (antibody, V domains shown, Engineered (germlined) ILT70080 variant tested as IgG1; also called ILT70080 variant) VH: QVQLVQSGAEVKKPGSSVKVSCKASGDSFRNYAVSWVRQAPGQGLEWMGAMMPSFGTREHSQQFQGRVTLSADESTSTAYMELSSLRSEDTAVYYCAGSRDYNAYHFWTGPPDFWGRGTLVTVSS VL: SYVLTQPPSVSVAPGKTARITCGGDSVGSTSVHWYQQKPGQAPVMVMFYNSDRPSGIPERFSGSISGNTATLTISRVEAGDEADYYCQVWDTSSDHPEFGGGTKLTVL",ADCC potency EC50,[1],< 14.1 µM
same,binding result,[3],binds
"afucosylated ILT70080.6 (antibody, V domains shown, afucosylated (no core fucose on the Fc N-glycan)) VH: QVQLVQSGAEVKKPGSSVKVSCKASGDSFRNYAVSWVRQAPGQGLEWMGAMMPSFGTREHSQQFQGRVTLTADESTSTAYMELSSLRSEDTAVYYCAGSRDYNAYHFWTGPPDFWGRGTLVTVSS VL: SYVLTQPPSVSVAPGKTARITCGGDSVGSTSVHWYQQKPGQAPVLVIYYNSDRPSGIPERFSGSNSGNTATLTISRVEAGDEADYYCQVWDTSSDHPEFGGGTKLTVL",ADCC EC50,[1],1.12 µM
same,ADCC EC50,[2],0.44 µM
"ILT70080.3 (antibody, V domains shown, Engineered (germlined) ILT70080 variant tested as IgG1; also called ILT70080 variant) VH: QVQLVQSGAEVKAPGTSVKVSCKASGDSFRNYAVSWVRQAPGQGLEWMGAMMPSFGTREHSQQFQGRVTLSADESTSTAYMELSSLRSEDTAVYYCAGSRDYNAYHFWTGPPDFWGRGTLVTVSS VL: SYVLTQPPSVSVAPGKTARITCGGDSVGSTSVHWYQQKPGQAPVMVMFYNSDRPSGIPERFSGSISGNTATLTISRVEAGDEADYYCQVWDTSSDHPEFGGGTKLTVL",ADCC potency EC50,[1],< 14.1 µM and 11 µM
same,binding result,[3],binds
"ILT70080.7 (antibody, V domains shown, Engineered (germlined) ILT70080 variant tested as IgG1; also called ILT70080 variant) VH: QVQLVQSGAEVKKPGSSVKVSCKASGDSFRNYAVSWVRQAPGQGLEWMGAMMPSFGTREHSQQFQGRVTLTADESTSTAYMELSSLRSEDTAVYYCAGSRDYNAYHFWTGPPDFWGRGTLVTVSS VL: SYVLTQPPSVSVAPGKTARITCGGDSVGSTSVHWYQQKPGQAPVLVMFYNSDRPSGIPERFSGSNSGNTATLTISRVEAGDEADYYCQVWDTSSDHPEFGGGTKLTVL",ADCC potency EC50,[1],< 14.1 µM and 7.8 µM
same,binding result,[3],binds
"ILT70080.6 (antibody, V domains shown, Engineered (germlined) ILT70080 variant tested as IgG1; also called ILT70080 variant) VH: QVQLVQSGAEVKKPGSSVKVSCKASGDSFRNYAVSWVRQAPGQGLEWMGAMMPSFGTREHSQQFQGRVTLTADESTSTAYMELSSLRSEDTAVYYCAGSRDYNAYHFWTGPPDFWGRGTLVTVSS VL: SYVLTQPPSVSVAPGKTARITCGGDSVGSTSVHWYQQKPGQAPVLVIYYNSDRPSGIPERFSGSNSGNTATLTISRVEAGDEADYYCQVWDTSSDHPEFGGGTKLTVL",ADCC potency EC50,[1],< 14.1 µM and 6.9 µM
same,binding result,[3],binds
"ILT70080.4 (antibody, V domains shown, Engineered (germlined) ILT70080 variant tested as IgG1; also called ILT70080 variant) VH: QVQLVQSGAEVKAPGTSVKVSCKASGDSFRNYAVSWVRQAPGQGLEWMGAMMPSFGTREHSQQFQGRVTLSADESTSTAYMELSSLRSEDTAVYYCAGSRDYNAYHFWTGPPDFWGRGTLVTVSS VL: SYELTQPPSVSVAPGKTAKISCGGDSVGSTSVHWYQQKPGQAPVMVMFYNSDRPSGIPERFSGSISGNTATLTISRVEAGDEADYYCQVWDTSSDHPEFGGGTKLTVL",ADCC potency EC50,[1],< 14.1 µM and 11.9 µM
same,binding result,[3],binds
"ILT70080.5 (antibody, V domains shown, Engineered (germlined) ILT70080 variant tested as IgG1; also called ILT70080 variant) VH: QVQLVQSGAEVKKPGSSVKVSCKASGDSFRNYAVSWVRQAPGQGLEWMGAMMPSFGTREHSQQFQGRVTLTADESTSTAYMELSSLRSEDTAVYYCAGSRDYNAYHFWTGPPDFWGRGTLVTVSS VL: SYVLTQPPSVSVAPGKTARITCGGDSVGSTSVHWYQQKPGQAPVMVMFYNSDRPSGIPERFSGSNSGNTATLTISRVEAGDEADYYCQVWDTSSDHPEFGGGTKLTVL",ADCC potency EC50,[1],< 14.1 µM and 8.6 µM
same,binding result,[3],binds
"ILT70080.1 (antibody, V domains shown, Engineered (germlined) ILT70080 variant tested as IgG1; also called ILT70080 variant) VH: QVQLVQSGAEVKKPGSSVKVSCKASGDSFRNYAVSWVRQAPGQGLEWMGAMMPSFGTREHSQQFQGRVTLTADESTSTAYMELSSLRSEDTAVYYCAGSRDYNAYHFWTGPPDFWGRGTLVTVSS VL: SYVLTQPPSVSVAPGKTARITCGGDSVGSTSVHWYQQKPGQAPVMVMFYNSDRPSGIPERFSGSISGNTATLTISRVEAGDEADYYCQVWDTSSDHPEFGGGTKLTVL",ADCC potency EC50,[1],< 14.1 µM and 8 µM and 10 µM
same,binding result,[3],binds
